# T1: B3GNT2 (Homo sapiens, UniProt Q9NY97)
# T1 construct: The respective ORFs of candidate genes [CD274 (NM_014143), MCL1 (NM_021960), JUNB (NM_002229), and B3GNT2 (NM_006577)] were synthesized; expressed in transfected cells; host or cells: A375 melanoma cells (lentiviral ORF overexpression)
# T1 sequence (Q9NY97 1-397): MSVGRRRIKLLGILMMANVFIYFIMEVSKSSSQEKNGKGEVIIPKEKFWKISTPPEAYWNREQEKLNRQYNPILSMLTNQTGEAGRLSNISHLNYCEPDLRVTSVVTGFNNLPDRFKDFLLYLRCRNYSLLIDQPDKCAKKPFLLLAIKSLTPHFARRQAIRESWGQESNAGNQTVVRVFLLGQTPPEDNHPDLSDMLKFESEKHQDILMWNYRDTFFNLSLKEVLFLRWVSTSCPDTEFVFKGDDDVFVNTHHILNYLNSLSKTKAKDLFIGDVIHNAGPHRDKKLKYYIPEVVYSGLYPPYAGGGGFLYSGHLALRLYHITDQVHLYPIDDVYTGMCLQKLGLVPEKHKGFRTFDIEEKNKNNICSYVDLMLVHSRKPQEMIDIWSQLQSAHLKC
# B1: ATXN2L (protein)
# chain: MLKPQPLQQPSQPQQPPPTQQAVARRPPGGTSPPNGGLPGPLATSAAPPGPPAAASPCLGPVAAAGSGLRRGAEGILAPQPPPPQQHQERPGAAAIGSARGQSTGKGPPQSPVFEGVYNNSRMLHFLTAVVGSTCDVKVKNGTTYEGIFKTLSSKFELAVDAVHRKASEPAGGPRREDIVDTMVFKPSDVMLVHFRNVDFNYATKDKFTDSAIAMNSKVNGEHKEKVLQRWEGGDSNSDDYDLESDMSNGWDPNEMFKFNEENYGVKTTYDSSLSSYTVPLEKDNSEEFRQRELRAAQLAREIESSPQYRLRIAMENDDGRTEEEKHSAVQRQGSGRESPSLASREGKYIPLPQRVREGPRGGVRCSSSRGGRPGLSSLPPRGPHHLDNSSPGPGSEARGINGGPSRMSPKAQRPLRGAKTLSSPSNRPSGETSVPPPPAVGRMYPPRSPKSAAPAPISASCPEPPIGSAVPTSSASIPVTSSVSDPGVGSISPASPKISLAPTDVKELSTKEPGRTLEPQELARIAGKVPGLQNEQKRFQLEELRKFGAQFKLQPSSSPENSLDPFPPRILKEEPKGKEKEVDGLLTSEPMGSPVSSKTESVSDKEDKPPLAPSGGTEGPEQPPPPCPSQTGSPPVGLIKGEDKDEGPVAEQVKKSTLNPNAKEFNPTKPLLSVNKSTSTPTSPGPRTHSTPSIPVLTAGQSGLYSPQYISYIPQIHMGPAVQAPQMYPYPVSNSVPGQQGKYRGAKGSLPPQRSDQHQPASAPPMMQAAAAAGPPLVAATPYSSYIPYNPQQFPGQPAMMQPMAHYPSQPVFAPMLQSNPRMLTSGSHPQAIVSSSTPQYPSAEQPTPQALYATVHQSYPHHATQLHAHQPQPATTPTGSQPQSQHAAPSPVQHQAGQAPHLGSGQPQQNLYHPGALTGTPPSLPPGPSAQSPQSSFPQPAAVYAIHHQQLPHGFTNMAHVTQAHVQTGITAAPPPHPGAPHPPQVMLLHPPQSHGGPPQGAVPQSGVPALSASTPSPYPYIGHPQGEQPGQAPGFPGGADDRIREFSLAGGIWHGRAEGLQVGQDARVLGGE
# B2: SPRR2E (protein)
# chain: MSYQQQQCKQPCQPPPVCPTPKCPEPCPPPKCPEPCPPPKCPQPCPPQQCQQKCPPVTPSPPCQPKCPPKSK
# B3: SDF4 (protein)
# chain: RPANHSSTRERVANREENEILPPDHLNGVKLEMDGHLNRGFHQEVFLGKDLGGFDEDAEPRRSRRKLMVIFSKVDVNTDRKISAKEMQRWIMEKTAEHFQEAMEESKTHFRAVDPDGDGHVSWDEYKVKFLASKGHSEKEVADAIRLNEELKVDEETQEVLENLKDRWYQADSPPADLLLTEEEFLSFLHPEHSRGMLRFMVKEIVRDLDQDGDKQLSVPEFISLPVGTVENQQGQDIDDNWVKDRKKEFEELIDSNHDGIVTAEELESYMDPMNEYNALNEAKQMIAVADENQNHHLEPEEVLKYSEFFTGSKLVDYARSVHEEF
# B4: SSR1 (protein)
# chain: VLFRGGPRGLLAVAQDLTEDEETVEDSIIEDEDDEAEVEEDEPTDLVEDKEEEDVSGEPEASPSADTTILFVKGEDFPANNIVKFLVGFTNKGTEDFIVESLDASFRYPQDYQFYIQNFTALPLNTVVPPQRQATFEYSFIPAEPMGGRPFGLVINLNYKDLNGNVFQDAVFNQTVTVIEREDGLDGETIFMYMFLAGLGLLVIVGLHQLLESRKRKRPIQKVEMGTSSQNDVDMSWIPQETLNQINKASPRRLPRKRAQKRSVGSDE
# B5: RARS (protein)
# chain: MDVLVSECSARLLQQEEEIKSLTAEIDRLKNCGCLGASPNLEQLQEENLKLKYRLNILRKSLQAERNKPTKNMINIISRLQEVFGHAIKAAYPDLENPPLLVTPSQQAKFGDYQCNSAMGISQMLKTKEQKVNPREIAENITKHLPDNECIEKVEIAGPGFINVHLRKDFVSEQLTSLLVNGVQLPALGENKKVIVDFSSPNIAKEMHVGHLRSTIIGESISRLFEFAGYDVLRLNHVGDWGTQFGMLIAHLQDKFPDYLTVSPPIGDLQVFYKESKKRFDTEEEFKKRAYQCVVLLQGKNPDITKAWKLICDVSRQELNKIYDALDVSLIERGESFYQDRMNDIVKEFEDRGFVQVDDGRKIVFVPGCSIPLTIVKSDGGYTYDTSDLAAIKQRLFEEKADMIIYVVDNGQSVHFQTIFAAAQMIGWYDPKVTRVFHAGFGVVLGEDKKKFKTRSGETVRLMDLLGEGLKRSMDKLKEKERDKVLTAEELNAAQTSVAYGCIKYADLSHNRLNDYIFSFDKMLDDRGNTAAYLLYAFTRIRSIARLANIDEEMLQKAARETKILLDHEKEWKLGRCILRFPEILQKILDDLFLHTLCDYIYELATAFTEFYDSCYCVEKDRQTGKILKVNMWRMLLCEAVAAVMAKGFDILGIKPVQRM
# B6: HNRNPA1 (protein)
# chain: SKSESPKEPEQLRKLFIGGLSFETTDESLRSHFEQWGTLTDCVVMRDPNTKRSRGFGFVTYATVEEVDAAMNARPHKVDGRVVEPKRAVSREDSQRPGAHLTVKKIFVGGIKEDTEEHHLRDYFEQYGKIEVIEIMTDRGSGKKRGFAFVTFDDHDSVDKIVIQKYHTVNGHNCEVRKALSKQEMASASSSQRGRSGSGNFGGGRGGGFGGNDNFGRGGNFSGRGGFGGSRGGGGYGGSGDGYNGFGNDGGYGGGGPGYSGGSRGYGSGGQGYGNQGSGYGGSGSYDSYNNGGGGGFGGGSGSNFGGGGSYNDFGNYNNQSSNFGPMKGGNFGGRSSGPYGGGGQYFAKPRNQGGYGGSSSSSSYGSGRRF
# B7: DSTN (protein)
# chain: ASGVQVADEVCRIFYDMKVRKCSTPEEIKKRKKAVIFCLSADKKCIIVEEGKEILVGDVGVTITDPFKHFVGMLPEKDCRYALYDASFETKESRKEELMFFLWAPELAPLKSKMIYASSKDAIKKKFQGIKHECQANGPEDLNRACIAEKLGGSLIVAFEGCPV
# B8: DNAJB11 (protein)
# chain: GRDFYKILGVPRSASIKDIKKAYRKLALQLHPDRNPDDPQAQEKFQDLGAAYEVLSDSEKRKQYDTYGEEGLKDGHQSSHGDIFSHFFGDFGFMFGGTPRQQDRNIPRGSDIIVDLEVTLEEVYAGNFVEVVRNKPVARQAPGKRKCNCRQEMRTTQLGPGRFQMTQEVVCDECPNVKLVNEERTLEVEIEPGVRDGMEYPFIGEGEPHVDGEPGDLRFRIKVVKHPIFERRGDDLYTNVTISLVESLVGFEMDITHLDGHKVHISRDKITRPGAKLWKKGEGLPNFDNNNIKGSLIITFDVDFPKEQLTEEAREGIKQLLKQGSVQKVYNGLQGY
# Biological target: T1, B3GNT2
# Assay: Co-IP of FLAG-tagged B3GNT2 followed by mass spectrometry
# Type: cell-based
# Parameters: C-term IgG / C-term flag: unit not given here
# Settings: Co-IP followed by mass spectrometry of B3GNT2; C-term tag, FLAG pull-down
# Description: Cells were plated in 10-cm cell culture dishes and grown to 60-80% confluency. For each condition, two biological replicates were harvested for co-IP. Cells were washed with PBS and 4 mL of lysis buffer (20 mM HEPES, 1% Triton X-100, 150 mM NaCl, 1 mM EDTA, and 10% glycerol) containing protease inhibitor cocktail was added. Cells were scraped and lysate was incubated at 4° C. under rotary agitation for 1 h. Lysate was centrifuged at 14,000×g for 10 min at 4° C. Supernatant was transferred to a new tube and an aliquot was taken as the input. […] For Western blots, 10 μg/mL Chicken Anti-FLAG (Aves labs ET-DY100) and IgY control (R&D Systems AB-101-C) antibodies were biotinylated (Thermo Fisher Scientific 90407) and added to the respective conditions. Lysates with antibodies were incubated at 4° C. under rotary agitation overnight. For each mL of lysate, 50 μL of Pierce Protein A/G Magnetic Beads (Mass spectrometry; Thermo Fisher Scientific 88803) or Pierce Streptavidin Magnetic Beads (Western blot; Thermo Fisher Scientific 88817) was washed twice with lysis buffer. Lysates with antibodies were added to the beads and incubated at 4° C. under rotary agitation for 4 h. Beads were washed with lysis buffer 3 times and resuspended in lysis buffer for storage. […] This solution was subjected to solid phase extraction to concentrate the peptides and remove unwanted reagents followed by injection onto a Shimadzu HPLC with fraction collector. Eight fractions were collected and after concentration were injected on a Waters NanoAcquity HPLC equipped with a self-packed Aeris 3 μm C18 analytical column 0.075 mm by 20 cm, (Phenomenex). Peptides were eluted using standard reverse-phase gradients. The effluent from the column was analyzed using a Thermo Orbitrap Elite mass spectrometer (nanospray configuration) operated in a data dependent manner for 54 minutes. […] Scaffold Q+S (Proteome Software) was used to provide consensus reports for the identified proteins.
row,C-term flag,Molecule
1,5,B1

# Same assay, conditions: Co-IP followed by mass spectrometry of B3GNT2; C-term tag, IgG pull-down
row,C-term IgG,Molecule
1,2,B1

# Same assay, conditions: Co-IP followed by mass spectrometry of B3GNT2; N-term tag, FLAG pull-down
row,N-term FLAG,Molecule
1,5,B1

# Same assay, conditions: Co-IP followed by mass spectrometry of B3GNT2; N-term tag, IgG pull-down
row,N-term IgG,Molecule
1,3,B1

# Same assay, conditions: Co-IP with FLAG antibody, C-terminally FLAG-tagged B3GNT2; mass spectrometry count, unit not given
row,C-term flag,Molecule
1,0,B2
2,7,B3
3,4,B4
4,2,B5
5,9,B6
6,3,B7
7,4,B8

# Same assay, conditions: Co-IP with FLAG antibody, N-terminally FLAG-tagged B3GNT2; mass spectrometry count, unit not given
row,N-term FLAG,Molecule
1,16,B2
2,0,B3
3,3,B4
4,0,B5
5,7,B6
6,0,B7
7,3,B8

# Same assay, conditions: Co-IP with IgG control antibody, C-terminally FLAG-tagged B3GNT2; mass spectrometry count, unit not given
row,C-term IgG,Molecule
1,5,B2
2,0,B3
3,0,B4
4,0,B5
5,4,B6
6,0,B7
7,0,B8

# Same assay, conditions: Co-IP with IgG control antibody, N-terminally FLAG-tagged B3GNT2; mass spectrometry count, unit not given
row,N-term IgG,Molecule
1,3,B2
2,0,B3
3,0,B4
4,0,B5
5,4,B6
6,0,B7
7,0,B8

# Source: patent US20240261333A1, “NOVEL TARGETS FOR ENHANCING ANTI-TUMOR IMMUNITY” (THE BROAD INSTITUTE, INC., priority 2021, published 2024)
